# Measured values: publication PMC4382702, “Artificial human Met agonists based on macrocycle scaffolds” (Nature Communications, 2015)
# Positions of bridges follow the written chain, without caps; N, C: chain ends.
# B1: aML5 (peptide)
# peptide: {CH2CO}-YISWNEFNSPNWRFITCG-NH2
# modifications: thioether N-17
# SMILES: CC[C@H](C)[C@@H]1NC(=O)[C@H](Cc2ccc(O)cc2)NC(=O)CSC[C@@H](C(=O)NCC(N)=O)NC(=O)[C@H]([C@@H](C)O)NC(=O)[C@H]([C@@H](C)CC)NC(=O)[C@H](Cc2ccccc2)NC(=O)[C@H](CCCNC(=N)N)NC(=O)[C@H](Cc2c[nH]c3ccccc23)NC(=O)[C@H](CC(N)=O)NC(=O)[C@@H]2CCCN2C(=O)[C@H](CO)NC(=O)[C@H](CC(N)=O)NC(=O)[C@H](Cc2ccccc2)NC(=O)[C@H](CCC(=O)O)NC(=O)[C@H](CC(N)=O)NC(=O)[C@H](Cc2c[nH]c3ccccc23)NC(=O)[C@H](CO)NC1=O
# notes: thioether macrocycle selected by RaPID from the L-library against human Met ectodomain; also called anti-Met L-library macrocycle 5; source: synthetic peptide (Fmoc SPPS, RP-HPLC purified)
# B2: aML5-Lin (peptide)
# peptide: Ac-YISWNEFNSPNWRFITAG-NH2
# notes: linear form of aML5, Ala in place of the ring-closing Cys; also called linear counterpart of aML5; source: synthetic peptide
# What was measured:
# c-Ret = test: Transactivation of c-Ret; format: cell-based, human
# Method: EHMES-1 cells were cultured in a 12-well plate until they were 80%–90% confluent. The cells were left untreated or stimulated with hHGF or aML5-PEG3 in the presence or absence of the indicated concentrations of the specific Met kinase inhibitor, SU11274 (Calbiochem). Cells were then lysed with 100 μl of Laemmli sample buffer. Lysates were sonicated and centrifuged for 15 min at 15,000 g. Supernatants were analysed by SDS–PAGE gel electrophoresis and western blotting, using anti-phosphorylated Met (Y1234/1235) mAb or anti-phosphorylated c-Ret (Y905) antibody.
# human Met ectodomain [1] = target: T1, human Met ectodomain (Homo sapiens, UniProt P08581); test: SPR analysis of macrocycle binding to immobilized human Met ectodomain-Fc
# T1 construct: human Met ectodomain-Fc chimera was immobilized; purchased Sino Biological Inc
# T1 sequence (P08581 25-932 limits assumed): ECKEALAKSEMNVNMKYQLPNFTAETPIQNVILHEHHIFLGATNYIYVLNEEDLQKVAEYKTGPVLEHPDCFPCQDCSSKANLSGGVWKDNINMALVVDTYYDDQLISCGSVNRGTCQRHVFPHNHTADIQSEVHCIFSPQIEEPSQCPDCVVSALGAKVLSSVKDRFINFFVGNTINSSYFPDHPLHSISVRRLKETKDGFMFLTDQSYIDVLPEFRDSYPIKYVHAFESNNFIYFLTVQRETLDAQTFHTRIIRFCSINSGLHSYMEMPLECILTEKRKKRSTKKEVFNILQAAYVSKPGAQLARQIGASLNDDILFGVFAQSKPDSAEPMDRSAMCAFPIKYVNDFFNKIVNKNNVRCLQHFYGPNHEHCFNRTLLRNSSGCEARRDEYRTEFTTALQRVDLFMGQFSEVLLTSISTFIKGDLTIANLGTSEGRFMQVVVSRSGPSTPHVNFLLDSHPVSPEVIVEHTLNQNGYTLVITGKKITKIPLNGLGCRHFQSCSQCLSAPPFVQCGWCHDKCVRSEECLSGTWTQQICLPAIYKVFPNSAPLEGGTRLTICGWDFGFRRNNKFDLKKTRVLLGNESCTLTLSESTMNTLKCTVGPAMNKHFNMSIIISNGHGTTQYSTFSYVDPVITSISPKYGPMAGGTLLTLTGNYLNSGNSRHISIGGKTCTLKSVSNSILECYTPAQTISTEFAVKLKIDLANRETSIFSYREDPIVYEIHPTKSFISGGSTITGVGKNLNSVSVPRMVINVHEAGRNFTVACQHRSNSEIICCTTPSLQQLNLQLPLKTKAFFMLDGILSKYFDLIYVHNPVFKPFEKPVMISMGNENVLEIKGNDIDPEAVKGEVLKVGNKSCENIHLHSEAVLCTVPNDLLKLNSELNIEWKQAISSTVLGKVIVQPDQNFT
# Method: (§1) The binding constants of the macrocycles to the Met ectodomain were determined by SPR analysis using a Biacore T200 machine (GE Healthcare). The running buffer was HBS EP+ buffer (10 mM Hepes pH 7.4, 150 mM NaCl, 3 mM EDTA and 0.05% (v/v) SurfactantP20) containing 0.1% DMSO. To assess the interaction between human Met and the macrocycles, human Met ectodomain-Fc chimera was immobilized to a surface density of 1,200–1,600 response units (RUs) on a CM5 sensor chip using a human antibody capture kit (GE Healthcare). Macrocycle binding was tested by injecting varying concentrations of the macrocycle at a flow rate of 30 μl min^−1. Binding was quantified by a single-cycle kinetics method. To assess whether macrocycles and hHGF interacted with human, mouse and canine Met, each biotinylated macrocycle or hHGF was immobilized to a surface density of 200–500 RUs (for biotinylated macrocycles) or ~2,200 (for biotinylated hHGF) RUs on a CAP sensor chip using a Biotin CAPture Kit (GE Healthcare), following the standard protocol. Met binding was tested by injecting varying concentrations of the macrocycle at 30 μl min^−1 and quantifying by a single-cycle kinetics method. All data were fitted to the standard 1:1 binding model.
# Met (Y1234/1235) = target: T2, Met (Y1234/1235) (Homo sapiens, UniProt P08581); test: Cell-based phospho-Met ELISA; details: EHMES-1 cells
# T2 construct: endogenous in cells; host or cells: EHMES-1
# T2 sequence (P08581 308-1390 limits assumed): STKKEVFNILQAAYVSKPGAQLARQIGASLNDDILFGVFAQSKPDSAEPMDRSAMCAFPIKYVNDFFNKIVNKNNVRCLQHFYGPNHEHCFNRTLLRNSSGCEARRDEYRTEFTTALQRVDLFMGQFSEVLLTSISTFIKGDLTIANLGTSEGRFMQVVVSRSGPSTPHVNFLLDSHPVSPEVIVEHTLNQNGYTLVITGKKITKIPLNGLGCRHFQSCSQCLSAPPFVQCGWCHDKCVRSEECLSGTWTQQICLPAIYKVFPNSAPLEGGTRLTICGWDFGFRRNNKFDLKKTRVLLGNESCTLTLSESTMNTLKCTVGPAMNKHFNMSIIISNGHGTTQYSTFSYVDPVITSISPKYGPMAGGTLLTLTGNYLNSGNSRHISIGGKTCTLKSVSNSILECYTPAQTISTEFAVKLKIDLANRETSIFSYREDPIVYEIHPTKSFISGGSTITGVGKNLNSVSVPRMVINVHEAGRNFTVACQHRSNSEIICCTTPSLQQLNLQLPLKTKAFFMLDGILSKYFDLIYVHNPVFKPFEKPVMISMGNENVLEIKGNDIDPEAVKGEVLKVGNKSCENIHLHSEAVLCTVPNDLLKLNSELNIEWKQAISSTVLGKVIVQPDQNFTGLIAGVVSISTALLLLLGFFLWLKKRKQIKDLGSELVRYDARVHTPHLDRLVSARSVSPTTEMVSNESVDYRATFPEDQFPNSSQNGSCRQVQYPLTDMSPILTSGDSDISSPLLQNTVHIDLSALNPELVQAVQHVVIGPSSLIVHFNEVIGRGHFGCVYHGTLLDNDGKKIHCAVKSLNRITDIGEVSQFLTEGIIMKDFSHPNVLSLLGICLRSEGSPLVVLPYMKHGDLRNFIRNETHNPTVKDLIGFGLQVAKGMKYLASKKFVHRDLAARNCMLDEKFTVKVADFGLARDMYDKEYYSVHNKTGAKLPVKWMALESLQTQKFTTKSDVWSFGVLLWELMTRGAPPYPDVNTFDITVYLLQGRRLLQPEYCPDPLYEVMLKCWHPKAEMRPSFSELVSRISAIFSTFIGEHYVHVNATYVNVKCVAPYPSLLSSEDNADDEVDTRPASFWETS
# T2 sequence (P08581 25-307 limits assumed): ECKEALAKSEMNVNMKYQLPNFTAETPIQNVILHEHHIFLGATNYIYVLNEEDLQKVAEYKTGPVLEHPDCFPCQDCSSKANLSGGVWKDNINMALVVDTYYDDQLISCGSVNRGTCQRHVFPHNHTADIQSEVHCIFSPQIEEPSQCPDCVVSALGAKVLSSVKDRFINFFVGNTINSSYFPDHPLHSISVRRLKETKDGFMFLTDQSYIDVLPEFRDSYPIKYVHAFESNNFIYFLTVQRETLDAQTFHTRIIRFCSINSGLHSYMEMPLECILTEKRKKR
# Method: EHMES-1 cells (2 × 10^4 cells per well) were seeded in a 96-well black μClear-plate (Greiner Bio-One). After 24 h, the cells were stimulated with hHGF or dimeric macrocycle in RPMI1640 medium supplemented with 10% FBS for 10 min. The cells were washed with ice-cold PBS, fixed with 4% paraformaldehyde (PFA) in PBS for 30 min and washed three times with PBS. The cells were blocked with 5% goat serum, 0.02% Triton X-100 in PBS for 30 min and then incubated for 12 h in phospho-Met (Tyr1234/1235) (D26) XP rabbit mAb diluted 1:1,000 in 1% goat serum in PBS at 4 °C. The cells were washed three times with PBS and incubated for 1 h in HRP-conjugated anti-rabbit goat antibody diluted 1:1,000 in 1% goat serum in PBS. Following incubation, the cells were washed four times with PBS. Chemiluminescence was developed with ImmunoStar LD reagent (Wako) and measured by ARVO MX (Perkin Elmer). Relative Met phosphorylation was calculated as (Chemiluminescence unit of sample−chemiluminescence unit of mock control)/(chemiluminescence unit of 1.3 nM hHGF−chemiluminescence unit of mock control).
# HCC827 cells = test: Cell growth assay in gefitinib-treated HCC827 cells; format: cell-based, human; details: HCC827 cells with 1 µM gefitinib
# Method: Cells were plated at 2,500 cells per well in 96-well plates for calcein-AM staining or 7,500 cells per well in 48-well plates for cell counting. For HUVEC and HDMEC, plates were pre-coated with gelatin (Difco Laboratories, 0.1% for 1 h at 37 °C). After 3 h, the medium was removed and replaced with medium as follows: HUVEC and HDMEC were cultured in endothelial cell basal medium supplemented with 2% (HUVEC) or 1% (HDMEC) FCS, and 90 μg ml^−1 heparin, with or without hHGF or dimeric macrocycle. RPTEC were cultured in REBM supplemented with 0.5% FBS and 2.4 mM L-alanyl-L-glutamine, with or without hHGF or dimeric macrocycle. NHEK was cultured in KBM2 supplemented with 0.4% bovine pituitary extract, 0.33 μg ml^−1 hydrocortisone, 0.39 μg ml^−1 epinephrine, 10 μg ml^−1 transferrin and 1.8 mM CaCl2, with or without hHGF or dimeric macrocycle. […] The culture media (with or without hHGF or dimeric macrocycle) were replaced every second day. After 6 days, cells were stained with 5 μg ml^−1 calcein-AM (Dojindo) at 37 °C for 15 min. Fluorescence of living cells was detected by ARVO MX. Alternatively, cells were harvested with trypsin–EDTA solution, suspended in culture medium and the cell number was determined using a Countess Automated Cell Counter (Life Technologies). Statistical differences between stimulants were calculated using Student’s t-test.
# [2] = test system: 49 representative human RTKs; test: Phospho-RTK array; format: cell-based
# Method: (§2) EHMES-1 cells were cultured in a six-well plate until they were 80%–90% confluent. After starvation for 6 h, the cells were stimulated with 2 nM hHGF or with 100 nM aML5-PEG3, aMD4-PEG11, aMD5-PEG11 or aMsD4-C6 for 10 min. Cells were then lysed with 200 μl of lysis buffer 17 (R&D Systems) containing 1 × Complete protease inhibitor cocktail (Roche). Lysates were analysed by SDS–PAGE analysis with 10% polyacrylamide gel and standard western blotting. The respective primary antibodies and HRP-conjugated secondary antibodies were diluted 1:2,000 in Can Get Signal Solution 1 (TOYOBO) and 1:5,000 in Can Get Signal Solution 2 (TOYOBO), respectively. Chemiluminescent signals were developed with Luminata Forte HRP substrate (Merck Millipore) and observed using an ImageQuant LAS 350 machine (GE Healthcare). Relative phosphorylation efficiency was evaluated by the band intensity and statistical differences between stimulants were calculated using Student’s t-test. The phospho-RTK array was performed using Proteome Profiler Human Phospho-RTK Array Kit (R&D Systems). For stimulation of cells with FBS, cells were cultured in the presence of 10% FBS, with or without excess concentrations of hHGF (30 nM) or aML5-PEG3 (3,000 nM) for 10 min. Cell lysates of stimulated EHMES-1 cells were analysed according to the manufacturer’s instructions.
# HPAEC = test: DNA synthesis (BrdU incorporation); format: cell-based, human; details: 30 nM dimeric macrocycle or 0.25 nM hHGF, 20 h
# Method: Normal HPAECs were maintained in MCDB 131 medium supplemented with 5% FBS and 1.2 nM of basic fibroblast growth factor. Cells were serum starved for 24 h and then stimulated with 30 nM dimeric macrocycle or 0.25 nM hHGF in the presence of 5% FBS and 10 μM BrdU for 20 h. The cells were fixed in 4% PFA in PBS for 30 min, permeabilized with 0.2% Triton X-100 in PBS for 5 min, treated with 2 M HCl for 20 min and neutralized with 0.1 M sodium tetraborate for 5 min. The treated, neutralized cells were incubated with anti-BrdU primary antibody (BD Biosciences) for 2 h and subsequently stained with a fluorescently labelled secondary antibody for 30 min. The nuclei were stained with DAPI. BrdU incorporation was analysed by Biozero fluorescence microscopy (Keyence).
# RPTEC = test: Branching morphogenesis assay in RPTEC; format: cell-based, human; details: RPTEC in collagen gels, 8 days
# Method: RPTEC (2 × 10^4 cells) were suspended in 400 μl Cellmatrix type IA collagen solution (Nitta Gelatin) in a 48-well plate and allowed to gel for 60 min at 37 °C, according to the manufacturer’s instructions. After gelation, 500 μl REBM supplemented with 0.5% FBS and 2.4 mM L-alanyl-L-glutamine, with or without hHGF (0.42 nM, 1.3 nM) or macrocycles (30 nM, 100 nM), were added to each well. Cells were cultured for 8 days, replacing the culture medium (with or without hHGF or dimeric macrocycle) every second day. HuCCT1 (1 × 10^4 cells) were suspended in 400 μl Cellmatrix type IA collagen solution in a 48-well plate and were allowed to gel for 60 min at 37 °C. After gelation, 500 μl RPMI1640 medium supplemented with 10% FBS, with or without 0.38 nM hHGF or 20 nM dimeric macrocycle, was added to each well. Cells were cultured for 8 days, replacing the culture medium (with or without hHGF or dimeric macrocycle) every second day. TAC-2 cells (4 × 10^3 cells) were suspended in 400 μl type I collagen solution (BD Biosciences) in a 48-well plate. After gelation, 500 μl DMEM supplemented with 10% FBS, with or without hHGF or dimeric macrocycle, was added to each well. Cells were cultured for 7 days, replacing the culture medium (with or without hHGF or dimeric macrocycle) every second day.
# human Met ectodomain [3] = target: T1, human Met ectodomain; test: SPR with biotinylated macrocycle or hHGF immobilized, human Met ectodomain injected; format: binding; details: ligand immobilized on streptavidin sensor chip
# Method: as §1
# (§3) Supplementary Figure 4. SPR sensorgrams of human (blue), murine (red) and […]
# (§4) Measured curves are shown in blue, red and green, and fitted curves are shown in black. […]
# canine Met ectodomain = target: T3, canine Met ectodomain (Canis lupus familiaris, UniProt Q75ZY9); test: SPR with biotinylated macrocycle or hHGF immobilized, canine Met ectodomain injected; format: binding; details: ligand immobilized on streptavidin sensor chip
# T3 construct: canine Met ectodomain were purchased from Sino Biological Inc; purchased Sino Biological Inc
# T3 sequence (Q75ZY9 25-935 limits assumed): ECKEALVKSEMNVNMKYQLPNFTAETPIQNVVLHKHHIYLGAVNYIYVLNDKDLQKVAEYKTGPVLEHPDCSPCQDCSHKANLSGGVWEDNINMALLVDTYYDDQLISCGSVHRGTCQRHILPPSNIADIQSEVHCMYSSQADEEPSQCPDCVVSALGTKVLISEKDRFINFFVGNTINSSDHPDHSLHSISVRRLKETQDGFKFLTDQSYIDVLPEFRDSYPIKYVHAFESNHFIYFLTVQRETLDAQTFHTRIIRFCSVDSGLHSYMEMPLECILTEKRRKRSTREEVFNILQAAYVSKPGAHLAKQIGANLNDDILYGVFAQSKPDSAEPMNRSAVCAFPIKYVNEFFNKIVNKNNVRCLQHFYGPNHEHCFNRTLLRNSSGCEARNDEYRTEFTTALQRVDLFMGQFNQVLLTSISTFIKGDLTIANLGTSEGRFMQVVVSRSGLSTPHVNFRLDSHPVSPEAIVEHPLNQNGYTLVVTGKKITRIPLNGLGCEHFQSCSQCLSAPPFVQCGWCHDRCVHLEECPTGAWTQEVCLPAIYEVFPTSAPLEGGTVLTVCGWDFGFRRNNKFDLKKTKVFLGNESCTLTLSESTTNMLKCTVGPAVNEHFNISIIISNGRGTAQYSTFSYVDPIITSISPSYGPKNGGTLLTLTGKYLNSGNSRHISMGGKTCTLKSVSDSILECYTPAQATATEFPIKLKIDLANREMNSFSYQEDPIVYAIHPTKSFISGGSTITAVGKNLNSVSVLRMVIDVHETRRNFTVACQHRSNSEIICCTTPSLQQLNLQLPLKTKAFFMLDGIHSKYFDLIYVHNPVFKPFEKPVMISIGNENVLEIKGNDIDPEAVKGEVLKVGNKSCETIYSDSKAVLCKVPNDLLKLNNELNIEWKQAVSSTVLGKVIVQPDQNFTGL
# Method: as §1, §3, §4
# murine Met ectodomain = target: T4, murine Met ectodomain (Mus musculus, UniProt P16056); test: SPR with biotinylated macrocycle or hHGF immobilized, murine Met ectodomain injected; format: binding; details: ligand immobilized on streptavidin sensor chip
# T4 construct: murine Met ectodomain-Fc chimera proteins; purchased Sino Biological Inc
# T4 sequence (P16056 25-931 limits assumed): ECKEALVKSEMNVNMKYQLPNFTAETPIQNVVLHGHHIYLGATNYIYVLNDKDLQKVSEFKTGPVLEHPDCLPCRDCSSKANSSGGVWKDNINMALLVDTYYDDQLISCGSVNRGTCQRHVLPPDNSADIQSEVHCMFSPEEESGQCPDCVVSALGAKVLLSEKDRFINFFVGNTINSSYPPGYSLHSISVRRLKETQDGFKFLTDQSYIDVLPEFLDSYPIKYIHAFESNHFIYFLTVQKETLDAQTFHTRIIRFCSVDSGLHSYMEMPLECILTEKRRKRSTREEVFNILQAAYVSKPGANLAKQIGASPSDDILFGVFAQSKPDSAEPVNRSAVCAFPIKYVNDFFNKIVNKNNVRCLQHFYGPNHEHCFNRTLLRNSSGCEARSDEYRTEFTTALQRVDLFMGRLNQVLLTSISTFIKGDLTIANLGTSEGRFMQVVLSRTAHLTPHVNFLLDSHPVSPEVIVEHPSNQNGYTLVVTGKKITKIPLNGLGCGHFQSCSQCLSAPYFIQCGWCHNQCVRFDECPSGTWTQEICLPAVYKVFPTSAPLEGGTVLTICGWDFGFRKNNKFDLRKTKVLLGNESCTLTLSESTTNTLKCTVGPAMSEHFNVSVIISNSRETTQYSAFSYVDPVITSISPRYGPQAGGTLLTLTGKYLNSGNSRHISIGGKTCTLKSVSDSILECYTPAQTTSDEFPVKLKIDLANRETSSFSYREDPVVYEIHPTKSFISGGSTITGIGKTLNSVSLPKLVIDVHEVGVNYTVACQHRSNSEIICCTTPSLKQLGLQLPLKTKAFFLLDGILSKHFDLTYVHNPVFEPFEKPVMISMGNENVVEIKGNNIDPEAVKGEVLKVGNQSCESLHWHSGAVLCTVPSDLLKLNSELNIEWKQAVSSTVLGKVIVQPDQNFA
# Method: as §1, §3, §4
# [4] = test system: Met, Gab1, Akt and Erk1/2; test: Western blotting of Met and downstream signalling proteins; format: cell-based, human; details: starved EHMES-1 cells, hHGF 2 nM or dimers 100 nM, 10 min
# Method: as §2
# [5] = target: T5, Recombinant human Met ectodomain-Fc chimera protein (human, UniProt P08581 25-932); test: SPR; Biacore T200; human Met ectodomain-Fc captured (1,200-1,600 RU) on a CM5 chip with a human antibody capture kit; monomeric macrocycle or linear peptide injected at 30 µl/min, single-cycle kinetics; HBS EP+ (10 mM Hepes pH 7.4, 150 mM NaCl, 3 mM EDTA, 0.05% Surfactant P20) with 0.1% DMSO; 1:1 binding model; details: both partners purified
# T5 construct: Hepatocyte growth factor receptor (Met), human, ectodomain; Captured through its Fc with a human antibody capture kit in a1 and a2; injected as analyte in a3; also called human Met extracellular domain; source: bought: Sino Biological Inc
# T5 sequence (P08581 25-932, stated change not applied): as the sequence (P08581 25-932 limits assumed) above
# [6] = 10% FBS, hHGF 30 nM or aML5-PEG3 3,000 nM
molecule,measurement,setting,value
"Cc1[nH]c(/C=C2\C(=O)Nc3ccc(S(=O)(=O)N(C)c4cccc(Cl)c4)cc32)c(C)c1C(=O)N1CCN(C)CC1 [SU11274, reference compound]",effect of Met inhibitor on c-Ret phosphorylation,c-Ret; EHMES-1 cells stimulated with 1 nM hHGF or 100 nM aML5-PEG3,decreased c-Ret phosphorylation
aML5-Lin: linear counterpart of aML5 (Ac-YISWNEFNSPNWRFITAG-NH2),KD relative to parental peptides,human Met ectodomain [1],approximately two orders of magnitude higher
"biotinylated hHGF: hHGF biotinylated using NH2-Reactive Biotin, 1.5 biotin per hHGF",Met Y1234/1235 phosphorylation (agonist activity),"Met (Y1234/1235); 10 min stimulation, 10% FBS",equivalent to that of hHGF
"hHGF: human recombinant hepatocyte growth factor, positive control",restoration of proliferation,HCC827 cells,restored in a dose-dependent manner
same,concentration above which Met phosphorylation level decreased (bell-shaped response),Met (Y1234/1235),above 5 nM
same,Met phosphorylation at excess concentration,[2]; [6],strongly induced Met phosphorylation
same,effect on RTKs phosphorylated in FBS-containing media,[2]; [6],neither affected the phosphorylation level of the RTKs
same,RTK phosphorylation selectivity,"[2]; EHMES-1 cells, 100 nM dimeric macrocycles or 2 nM hHGF, 10 min, without FBS",specifically phosphorylated Met
same,DNA synthesis (BrdU incorporation),HPAEC,promoted DNA synthesis
same,branched tubule formation,RPTEC,developed branched tubules
same,c-Ret phosphorylation,"c-Ret; EHMES-1 cells, FBS-containing media",induced c-Ret phosphorylation in a dose-dependent manner
same,binding to human Met ectodomain,human Met ectodomain [3],binding of the immobilized hHGF to all three of the ectodomains
same,binding to canine Met ectodomain,canine Met ectodomain,binding of the immobilized hHGF to all three of the ectodomains
same,binding to murine Met ectodomain,murine Met ectodomain,binding of the immobilized hHGF to all three of the ectodomains
same,"phosphorylation of Met and downstream proteins (Gab1, Akt, Erk1/2)",[4],Met was phosphorylated at the Y1234/1235 and Y1349 residues
B1,Kd,[5],19 nM
same,koff,[5],0.0081 s⁻¹
same,kon,[5],430000 M⁻¹ s⁻¹
B2,Kd,[5],1300 nM
same,koff,[5],0.017 s⁻¹
same,kon,[5],13000 M⁻¹ s⁻¹
